Source: patent US20120207771A1 (MORPHOTEK, published 2012)

Experiments:
[1] = biological target: T1, folate receptor alpha (FRα), human (human, UniProt P15328 25-234); test: sandwich EIA, biotin-labeled detector MORAb-003, capture MOV18, row '1-S' (label not explained)
T1 construct: also called FR-alpha; FOLR-1

[2] = biological target: T1, folate receptor alpha (FRα), human; test: sandwich ECLIA on serum, 9F3 as capture (Pair 1)
Method: (§1) FRα levels in the serum of patients with ovarian cancer, patients with lung cancer, and normal controls were assessed. Serum FRα levels were assessed using ECLIA with two different pairs of capture-detector antibodies: Pair 1, in which 9F3 was the capture antibody and 24F12 was the detector antibody, and Pair 2, in which 26B3 was the capture antibody and 19D4 was the detector antibody.
(§2) The FRα pairs were tested with full calibrator curves and 196 individual serums diluted 1:4. In one experiment, 26B3 was used as the capture antibody after CR processing on a plate lot (75 μg/mL, +B, +T) and 19D4 was used as the detector antibody at 1.0 μg/mL. In another experiment, 9F3 was used as the capture antibody and 24F12 was used as the detector antibody at 1.0 μg/mL. Each were CR processed (lot 10070) with an label to protein ratio (L/P) of 13.3. Diluent 100 (Meso Scale Discovery, Gaithersburg, Md.)+human anti-mouse antibody (HAMA)+mIgG was used for samples and calibrator. Diluent 3 (Meso Scale Discovery, Gaithersburg, Md.) was used for detections.
(§3) The following protocol was employed for the ECLIA. Samples were added at 50 μL/well. The samples were shaken for 2 hours and subsequently washed with Phosphate Buffered Saline (PBS) solution with the detergent Tween 20 (PBST). […] Finally, the electrochemiluminescence (ECL) emission of the samples was read with 2×MSD® Buffer T.

[3] = biological target: T1, folate receptor alpha (FRα), human; test: sandwich ECLIA on serum, 24F12 as detector (Pair 1)
Method: as §1, §2, §3

[4] = biological target: T1, folate receptor alpha (FRα), human; test: sandwich ECLIA on serum, 26B3 as capture (Pair 2)
Method: as §1, §2, §3

[5] = biological target: T1, folate receptor alpha (FRα), human; test: sandwich ECLIA on serum, 19D4 as detector (Pair 2)
Method: as §1, §2, §3

T1 sequence (P15328 25-234 limits assumed): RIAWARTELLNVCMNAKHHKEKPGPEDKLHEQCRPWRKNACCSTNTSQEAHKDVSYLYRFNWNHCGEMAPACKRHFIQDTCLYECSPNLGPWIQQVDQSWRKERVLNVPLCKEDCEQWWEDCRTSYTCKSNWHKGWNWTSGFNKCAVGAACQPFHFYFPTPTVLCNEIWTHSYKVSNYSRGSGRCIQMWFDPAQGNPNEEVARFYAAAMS

B1: MORAb-003 antibody (antibody, human IgG1, kappa, V domains shown)
VH: EVQLVESGGGVVQPGRSLRLSCSASGFTFSGYGLSWVRQAPGKGLEWVAMISSGGSYTYYADSVKGRFAISRDNAKNTLFLQMDSLRPEDTGVYFCARHGDDPAWFAYWGQGTPVTVSS
VL: DIQLTQSPSSLSASVGDRVTITCSVSSSISSNNLHWYQQKPGKAPKPWIYGTSNLASGVPSRFSGSGSGTDYTFTISSLQPEDIATYYCQQWSSYPYMYTFGQGTKVEIKR
notes: Used labeled with ruthenium chelate (ECLIA) or biotin (EIA) as detector, or unlabeled as capture antibody
B1: binds [1].

B2: 9F3.H9.H3.H3.B5.G2 antibody (antibody, mouse IgG2a, V domains shown)
VH: ESGPGLVRPSQSLSLTCSVTGYSITSGYYWNWIRQFPGSRLEWMGYIKSDGSNNYNPSLKNRISITRDTSKNQFFLKLNSVTTEDTATYFCTREWKAMDYWGQGTSVTVSS
VL: PAIMSASPGEKVTMTCRASSTVSYSYLHWYQQKSGASPQLWIYGTSNLASGVPARFSGSGSGTSYSLTISSVEAEDAATYYCQQYSGYPLTFGAGTKLELKR
notes: ATCC PTA-11887
B2: binds [2].

B3: 24F12.B1 antibody (antibody, mouse IgG1, V domains shown)
VH: SGGGLVRPGGSLKLSCAASGFTFSSYAMSWVRQSPEKRLEWVAEIGSGGSYTYYPDTVTGRFTISRDNAKSTLYLEMSSLRSEDTAIYYCARETTAGYFDYWGQGTTLTVSS
VL: TSSLSASLGDRVTISCSASQGINNFLNWYQQKPDGTVKLLIYYTSSLHSGVPSRFSGSGSGTDYSLTISNLEPEDIAIYYCQHFSKLPWTFGGGTKLEIKR
notes: ATCC PTA-11886
B3: binds [3].

B4: 26B3.F2 antibody (antibody, mouse IgG1, V domains shown)
VH: GPELVKPGASVKISCKASDYSFTGYFMNWVMQSHGKSLEWIGRIFPYNGDTFYNQKFKGRATLTVDKSSSTAHMELRSLASEDSAVYFCARGTHYFDYWGQGTTLTVSS
VL: PASLSASVGETVTITCRTSENIFSYLAWYQQKQGISPQLLVYNAKTLAEGVPSRFSGSGSGTQFSLKINSLQPEDFGSYYCQHHYAFPWTFGGGSKLEIKR
notes: ATCC PTA-11885
B4: binds [4].

B5: 19D4.B7 antibody (antibody, mouse IgG2a, V domains shown)
VH: GAELVKPGASVKLSCTASGFNIKHPYMHWVKQRPDQGLEWIGRIDPANGNTKYDPKFQGKATITADTSSNTAYLQLSSLTSEDTAVYYCGREEVADYTMDYWGQGTSVTVSS
VL: PASLAVSLGQRATISCRASESVDTYGNNFIHWYQQKPGQPPKLLIYLASNLESGVPARFSGSGSRTDFTLTIDPVEADDAATYYCQQNNGDPWTFGGGTKLEIKR
notes: ATCC PTA-11884
B5: binds [5].
